Measurements: the Immune Epitope Database (IEDB)

Assays:
HLA-B*15:01 [1] = assay: IEDB peptide-MHC binding, purified MHC/competitive/fluorescence; ≥ and ≤ were set here for values at or beyond the usual limits of such assays
HLA-A*02:01 = assay: as above
HLA-A*24:02 = assay: as above; conditions: source organism: Zaire ebolavirus
HLA-B*27:05 = assay: IEDB peptide-MHC binding, purified MHC/direct/fluorescence; filed as Kd, often an IC50 or EC50 that approximates it; ≥ and ≤ were set here for values at or beyond the usual limits of such assays; conditions: source organism: Zaire ebolavirus
HLA-B*15:01 [2] = assay: as above; conditions: source organism: Zaire ebolavirus
HLA-B*58:01 = assay: as above; conditions: source organism: Zaire ebolavirus
HLA-A*29:02 = assay: as above; conditions: source organism: Zaire ebolavirus
HLA-A*02:19 = assay: as above; conditions: source organism: Zaire ebolavirus
HLA-A*68:02 = assay: as above; conditions: source organism: Zaire ebolavirus
HLA-A*03:01 [3] = assay: as above; conditions: source organism: Zaire ebolavirus
HLA-B*27:03 = assay: IEDB peptide-MHC binding, purified MHC/competitive/fluorescence; filed as Kd, often an IC50 or EC50 that approximates it; ≥ and ≤ were set here for values at or beyond the usual limits of such assays; conditions: source organism: Zaire ebolavirus
HLA-B*51:01 [4] = assay: as above; conditions: source organism: Zaire ebolavirus
HLA-B*57:01 = assay: as above; conditions: source organism: Zaire ebolavirus
HLA-A*26:01 = assay: as above; conditions: source organism: Zaire ebolavirus
HLA-A*69:01 = assay: as above; conditions: source organism: Zaire ebolavirus
HLA-A*01:01 = assay: IEDB peptide-MHC binding, purified MHC/competitive/fluorescence; ≥ and ≤ were set here for values at or beyond the usual limits of such assays
HLA-A*11:01 = assay: as above
HLA-A*03:01 [5] = assay: as above
HLA-B*08:01 = assay: as above
HLA-B*07:02 = assay: as above; conditions: source organism: Zaire ebolavirus
HLA-B*35:01 = assay: IEDB peptide-MHC binding, purified MHC/competitive/radioactivity; filed as Kd, often an IC50 or EC50 that approximates it; ≥ and ≤ were set here for values at or beyond the usual limits of such assays; conditions: source organism: Dengue virus 4 Philippines/H241/1956
HLA-B*53:01 = assay: as above; conditions: source organism: Dengue virus 4 Philippines/H241/1956
HLA-B*51:01 [6] = assay: IEDB peptide-MHC binding, purified MHC/direct/fluorescence; filed as Kd, often an IC50 or EC50 that approximates it; ≥ and ≤ were set here for values at or beyond the usual limits of such assays
[7] = source organism: Zaire ebolavirus
[8] = source organism: Sudan ebolavirus
[9] = source organism: Vaccinia virus

## GQFLSFASL
HLA-B*15:01 [1]; [7]
  IC50: 1.27 µM
HLA-A*02:01; [7]
  IC50: 3.42 µM
HLA-A*24:02
  IC50: 19.5 µM
HLA-B*27:05
  Kd: 0.151 µM
HLA-B*15:01 [2]
  Kd: 0.032 µM
HLA-B*58:01
  Kd: ≥ 20 µM
HLA-A*29:02
  Kd: ≥ 20 µM
HLA-A*02:19
  Kd: ≥ 20 µM
HLA-A*68:02
  Kd: ≥ 20 µM
HLA-A*03:01 [3]
  Kd: ≥ 20 µM
HLA-B*27:03
  Kd: ≥ 20 µM
HLA-B*51:01 [4]
  Kd: ≥ 20 µM
HLA-B*57:01
  Kd: ≥ 20 µM
HLA-A*26:01
  Kd: ≥ 20 µM
HLA-A*69:01
  Kd: ≥ 20 µM

## YTEGLMHNQ
HLA-A*01:01; [8]
  IC50: ≥ 135 µM

## ESDMDYHKI
HLA-A*01:01; [7]
  IC50: ≥ 118 µM
HLA-A*24:02
  IC50: ≥ 111 µM

## QVEQHHRRT
HLA-A*11:01; [7]
  IC50: 0.543 µM
HLA-A*02:01; [7]
  IC50: ≥ 252 µM
HLA-A*03:01 [5]; [7]
  IC50: 3.08 µM

## GTGPCPGDY
HLA-A*11:01; [8]
  IC50: ≥ 114 µM
HLA-A*01:01; [8]
  IC50: 10.8 µM

## FQRTFSIPL
HLA-B*15:01 [1]; [7]
  IC50: 2.2 µM
HLA-B*08:01; [7]
  IC50: 5.48 µM
HLA-A*02:01; [7]
  IC50: 3.55 µM
HLA-B*07:02
  IC50: 3.92 µM
HLA-A*24:02
  IC50: 47 µM

## KQKFPYEGG
HLA-B*15:01 [1]; [9]
  IC50: ≥ 233 µM

## KPVPNRSTK
HLA-A*11:01; [7]
  IC50: ≥ 115 µM
HLA-B*07:02
  IC50: 30.9 µM
HLA-A*03:01 [5]; [7]
  IC50: ≥ 166 µM

## LFLESGAVK
HLA-A*11:01; [7]
  IC50: 68.8 µM
HLA-A*24:02
  IC50: 15.2 µM
HLA-A*03:01 [5]; [7]
  IC50: ≥ 192 µM

## LIIDEVHEH
HLA-B*15:01 [1]; source organism: Variola virus
  IC50: ≥ 128 µM
HLA-A*11:01; source organism: Variola virus
  IC50: 69.2 µM
HLA-A*02:01; source organism: Variola virus
  IC50: ≥ 99.4 µM

## TPFGQQRVF
HLA-B*35:01
  Kd: 0.0474 µM
HLA-B*53:01
  Kd: 0.264 µM
HLA-B*51:01 [6]; source organism: Dengue virus 1 Singapore/S275/1990
  Kd: ≥ 20 µM

## STHNTPVYK
HLA-A*11:01; [7]
  IC50: 0.44 µM
HLA-A*02:01; [7]
  IC50: ≥ 323 µM
HLA-A*24:02
  IC50: ≥ 134 µM
HLA-A*03:01 [5]; [7]
  IC50: 5.02 µM

## SMRDQRKGR
HLA-A*03:01 [5]; source organism: Variola virus
  IC50: 6.32 µM

## GCLRIQSLM
HLA-B*15:01 [1]; [9]
  IC50: ≥ 591 µM
HLA-B*08:01; [9]
  IC50: ≥ 697 µM
HLA-A*02:01; [9]
  IC50: 9.58 µM

## SPSKLASAI
HLA-B*51:01 [6]; source organism: Dengue virus
  Kd: ≥ 20 µM
